According to patent US7842460:

T1: Ubiquitin-PLA2mX fusion, Q9QXX3
T1 chain: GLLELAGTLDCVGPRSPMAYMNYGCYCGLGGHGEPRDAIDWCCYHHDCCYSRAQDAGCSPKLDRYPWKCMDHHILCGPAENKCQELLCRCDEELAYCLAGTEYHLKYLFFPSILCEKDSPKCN

T2: SUMO-GPATase fusion protein from pET24-6H-SUMO-GPATase, P0AG16
T2 chain: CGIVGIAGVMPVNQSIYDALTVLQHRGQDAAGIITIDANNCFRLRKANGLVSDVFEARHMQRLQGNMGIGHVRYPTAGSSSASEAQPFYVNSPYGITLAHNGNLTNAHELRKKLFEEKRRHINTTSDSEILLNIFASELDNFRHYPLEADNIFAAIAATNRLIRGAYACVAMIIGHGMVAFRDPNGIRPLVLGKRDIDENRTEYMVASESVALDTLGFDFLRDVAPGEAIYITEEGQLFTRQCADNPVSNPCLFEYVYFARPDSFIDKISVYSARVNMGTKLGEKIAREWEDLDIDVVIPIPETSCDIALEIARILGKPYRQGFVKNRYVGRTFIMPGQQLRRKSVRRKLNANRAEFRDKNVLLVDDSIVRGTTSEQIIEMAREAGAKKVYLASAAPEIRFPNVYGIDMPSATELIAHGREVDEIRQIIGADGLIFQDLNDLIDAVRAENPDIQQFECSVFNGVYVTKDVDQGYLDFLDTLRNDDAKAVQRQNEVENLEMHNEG

T3: (yeast SUMO) Smt3-PLA2mX fusion, Q9QXX3
T3 chain: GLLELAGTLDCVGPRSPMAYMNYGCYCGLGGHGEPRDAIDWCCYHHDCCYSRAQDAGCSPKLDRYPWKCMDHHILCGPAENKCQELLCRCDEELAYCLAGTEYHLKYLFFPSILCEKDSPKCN

T4: Smt3-3Dpol (Mahoney strain) fusion from pET24-6H-SUMO-3Dpol, P03300
T4 chain: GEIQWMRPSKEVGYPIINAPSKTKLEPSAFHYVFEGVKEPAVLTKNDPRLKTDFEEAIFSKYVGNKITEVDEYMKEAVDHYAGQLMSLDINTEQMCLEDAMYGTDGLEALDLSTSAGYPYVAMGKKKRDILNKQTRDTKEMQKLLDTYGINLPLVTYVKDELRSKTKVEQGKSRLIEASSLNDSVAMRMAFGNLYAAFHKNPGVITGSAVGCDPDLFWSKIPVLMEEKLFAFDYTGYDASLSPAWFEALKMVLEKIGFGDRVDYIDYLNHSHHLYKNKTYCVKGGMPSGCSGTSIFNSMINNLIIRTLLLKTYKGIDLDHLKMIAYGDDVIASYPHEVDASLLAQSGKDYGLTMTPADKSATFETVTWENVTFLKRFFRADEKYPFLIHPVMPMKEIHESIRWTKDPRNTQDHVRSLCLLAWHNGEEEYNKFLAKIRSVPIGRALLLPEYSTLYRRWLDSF

B1: SENP2 isopeptidase (protein)
chain: DLLELTEDMEKEISNALGHGPQDEILSSAFKLRITRGDIQTLKNYHWLNDEVINFYMNLLVERNKKQGYPALHVFSTFFYPKLKSGGYQAVKRWTKGVNLFEQEIILVPIHRKVHWSLVVIDLRKKCLKYLDSMGQKGHRICEILLQYLQDESKTKRNSDLNLLEWTHHSMKPHEIPQQLNGSDCGMFTCKYADYISRDKPITFTQHQMPLFRKKMVWEILHQQLL
B2: Den1, a Nedd8-specific isopeptidase (protein)
chain: MDPVVLSYMDSLLRQSDVSLLDPPSWLNDHIIGFAFEYFANSQFHDCSDHVSFISPEVTQFIKCTSNPAEIAMFLEPLDLPNKRVVFLAINDNSNQAAGGTHWSLLVYLQDKNSFFHYDSHSRSNSVHAKQVAEKLEAFLGRKGDKLAFVEEKAPAQQNSYDCGMYVICNTEALCQNFFRQQTESLLQLLTPAYITKKRGEWKDLITTLAKK
B3: C-terminal His-tagged SUMO protease 1, ULP1 (403-621)p (protein)
chain: LVPELNEKDDDQVQKALASRENTQLMNRDNIEITVRDFKTLAPRRWLNDTIIEFFMKYIEKSTPNTVAFNSFFYTNLSERGYQGVRRWMKRKKTQIDKLDKIFTPINLNQSHWALGIIDLKKKTIGYVDSLSNGPNAMSFAILTDLQKYVMEESKHTIGEDFDLIHLDCPQQPNGYDCGIYVCMNTLYGSADAPLDFDYKDAIRMRRFIAHLILTDALK

Legend:
[1] = biological target: T1, Ubiquitin-PLA2mX fusion, Q9QXX3
[2] = biological target: human SUMO3-PLA2mX fusion, P55854
[3] = biological target: human Nedd8-PLA2mX fusion, Q15843
[4] = biological target: T2, SUMO-GPATase fusion protein from …
[5] = biological target: T3, (yeast SUMO) Smt3-PLA2mX fusion, Q9QXX3
[6] = biological target: Smt3-tryptase (6xHis-SUMO-human tryptase fusion, secreted from Sf9 insect cells) [SUMO: Q12306]
[7] = biological target: T4, Smt3-3Dpol (Mahoney strain) fusion from …

human Nedd8-PLA2mX fusion, Q15843, sequence (Q15843 whole entry, looked up, the tested form may be a part): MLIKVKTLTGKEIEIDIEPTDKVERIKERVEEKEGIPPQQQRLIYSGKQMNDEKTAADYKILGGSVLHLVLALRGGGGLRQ
Smt3-tryptase (6xHis-SUMO-human tryptase fusion, secreted from Sf9 insect cells) [SUMO: Q12306], sequence (Q12306 whole entry, looked up, the tested form may be a part): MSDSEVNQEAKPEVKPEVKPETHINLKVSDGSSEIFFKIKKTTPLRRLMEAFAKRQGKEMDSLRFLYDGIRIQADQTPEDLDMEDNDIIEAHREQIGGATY

Row | Protein | cleavage of the fusion by SDS-PAGE [1] | Ratio of PLA2 activity, fusion with isopeptidase over fusion without [2] | cleavage of the fusion by SDS-PAGE (10 ug fusion, 1 ug SENP2) [2] | Ratio of PLA2 activity, fusion with isopeptidase over fusion without [3] | cleavage of the fusion by SDS-PAGE [3] | GPATase activity by coupled glutamate dehydrogenase assay, absorbance at 363 nm [4] | glutaminase activity of GPATase (coupled GDH assay) [4] | Ratio of PLA2 activity, fusion with isopeptidase over fusion without [5] | cleavage of the fusion by SDS-PAGE (10 ug fusion, 1 ug Ulp-1, one hour) [5] | tryptase activity, peptidyl chromogenic substrate, absorption at 410 nm [6] | cleavage of the fusion by SDS-PAGE and Coomassie Blue staining [7]
1 | B1 | The SENP2 enzyme failed to cleave the Ubiqutin-PLA2mX fusion protein | 9.95 | the appropriately sized hSUMO3 (21 kDa) and PLA2mX (14 kDa) bands were observed, indicating complete cleavage of the fusion protein | – | – | – | – | – | – | – | –
2 | B2 | – | – | – | 3.38 | the Nedd8-fusion protein became cleaved and 14 kDa PLA2mX and 9 kDa Nedd8 bands appear | – | – | – | – | – | –
3 | B3 | The yeast ULP1 enzyme failed to cleave the Ubiquitin-PLA2mX fusion protein | – | – | – | – | there was an increase is absorbance at the OD 363 reading ... In the absence of Ulp1, this increase of absorbance did not occur | at least a 10-fold increase in the glutaminase activity of GPATase | 7.04 | complete cleavage of the reporter fusion protein to yield the separate constituents, Smt3 (at 21 kDa) and 14 kDa PLA2mX | augmented tryptase activity was measured | resulted in 100% of cleavage of 3Dpol
